The record followed here is patent US20100028347A1 (Eli Lilly, published 2010).

Substitutions are numbered along the chain they refer to.

In experiment [1] the target is T1, native VEGFR-1 expressed on the cell surface (human, UniProt P17948 27-1338).
T1 construct: whole, on cells; The assay field of each row names the cell line; also called PAE-VEGFR-I cells; VEGFR-I expressing porcine aorta endothelial cells
In words: cell-based competition: cold VEGF at 200-fold molar excess over 125I-VEGF (2 ng/ml) on PAE-VEGFR-1 cells, gamma counting. As for the experimental part:
The binding of ¹²⁵1-VEGF to VEGFR-I on cell surface was performed using PAE-VEGFR-I expressing cells. […] Confluent cells were incubated in serum- and growth supplement-free Dulbecco's Modified Eagle Medium (DMEM)ZF-12 medium (Invitrogen, Carlsbad, Calif.) for 24 hours. Cells were rinsed once with ice-cold DMEMZF-12 medium containing 0.025 M HEPES and 1 mgZml bovine serum albumin (BSA). A serial dilution of anti-VEGFR-I antibody 18F1 or cold VEGF at the concentration of a 200-fold molar excess of labeled VEGF was added to each well in the plate and incubated at 4° C. for 1 hour. After wash, ¹²⁵I-VEGF was added at the concentration of 2 ngZml and was incubated at 4° C. for 2 hours on a platform shaker. The cells were washed three times with PBS containing 1 mgZml BSA and 0.25 mM CaCl₂, and were incubated for 5 minutes in the presence of 1% Triton X-100, 1 mgZml BSA, and 0.16% NaN₃ to remove bound VEGF. The soluble content of each well was counted in a gamma counter. The assays were performed in triplicate in at least three independent experiments and the data were analyzed using Prism GraphPad software 3.03.

The target of another experiment is T2, mouse VEGFR-2 Fc (mouse, UniProt P35918 20-762, limits assumed).
T2 construct: not shown: Fc part; not described
Description: ELISA: antibody dilutions on plate coated with 1 µg/ml mouse VEGFR-2 Fc, HRP secondary, O.D. 450. As for the experimental part:
To determine the specificity of an anti-VEGFR-1 monoclonal antibody to human VEGFR-I, purified antibodies 18F1 were tested in an ELISA-based assay. One μg/ml of recombinant human VEGFR-I Fc, mouse VEGFR-I Fc, mouse VEGFR-2 Fc, or human VEGFR-2 alkaline phosphatase was coated with PBS in a 96-well microtiter plates at 4° C. over night. After wash, the receptor coated plates were blocked with PBS containing 5% Dry Milk and 0.05% Tween 20. Serial dilutions of primary antibody 18F1 to human VEGFR-I, MF1 to mouse VEGFR-I, IC1 1 to human VEGFR-2, or DClOl to mouse VEGFR-2 were incubated in the receptor-coated plates for 30 minutes. After wash secondary anti-primary HRP conjugate antibodies was incubated in the plates for 30 minutes. Plates were washed and incubated with the substrate TMB (3,3′,5,5′-tetra-methylbenzidine) for color development. The absorbance at 450 nm was read as OD values for quantification of binding activity of antibodies. Data were analyzed using a GraphPad Prism Software.
(ELISA stands for enzyme-linked immunosorbent assay.)

Experiment [2] deals with T1, native VEGFR-1 expressed on the cell …. In words: cell-based or functional assay.
In experiment [3] the target is T3, soluble recombinant human VEGFR-1 alkaline phosphatase (human, UniProt P17948 27-758).
T3 construct: Made in house in stably transfected cells; also called rhuVEGFR-I AP; VEGFR-I AP; not shown: alkaline phosphatase fusion partner
Description: ELISA, purified antibody on rhuVEGFR-1 AP coated plate (given as ED50). How it is done: (§1) Specifically, hybridoma supernatants or purified antibodies were diluted in PBS with 5% FBS and 0.05% Tween 20 (ELISA buffer) and incubated in rhuVEGFR-I AP or AP coated 96-well microtiter plates for 30 minutes. Plates were washed with the ELISA buffer and incubated with goat anti-mouse IgG-horseradish peroxidase (HRP) conjugate (BioSource International, Camarillo, Calif.) for 30 minutes. TMB (3,3′,5,5′-tetra-methylbenzidine) substrate (Kierkegaard and Perry Lab, Inc., Gaithersburg, Md.) was used for color development following the manufacturer's instruction. The absorbance at 450 nanometers (nm) was read for quantification of binding activity of antibodies. For identification of the hybridomas producing anti-VEGFR-I antibodies, hybridoma supernatants were preincubated with VEGFR-I AP for 1 hour. The mixtures were incubated with the ELISA buffer in VEGF or P1GF coated 96-well microtiter plates for 1 hour. PNPP (p-nitrophenyl phosphate) substrate for AP was used for color development following the manufacturer's instruction. The absorbance at 405 nm was read for quantification of VEGFR-I binding to VEGF or P1GF. Optical density (OD) values were read on a microtiter plate reader (Molecular Devices Corp., Sunnyvale, Calif.). ED50 and IC50 of the antibodies were analyzed using GraphPad Prism 3 software (GraphPad Software, Inc., San Diego, Calif.).

For experiment [4], the target named is T4, recombinant extracellular domain of VEGFR-1 (UniProt P17948 27-758, limits assumed).
T4 construct: extracellular domain
In words: SPR, BIAcore 2000, VEGFR-1 extracellular domain immobilised at low density. As for the experimental part:
Affinities of anti-VEGFR-1 antibody clones 6F9, 13 G12, 15F1 1, 18F1 were determined by plasmon resonance technology using BIAcore 2000 (Pharmacia, Piscataway, N.J.) according to the procedures provided by the manufacturer. Kinetic analyses of the antibodies were performed by immobilization of recombinant extracellular domain of VEGFR-I onto a sensor surface at a low density. The (kₒₙ) and dissociation (kₒ_{^ff}) rates were determined using the BIAevaluation 2.1 software provided by the manufacturer.
(In general: SPR reads the build-up and loss of mass on a sensor chip optically.)

The target of experiment [5] is T3, soluble recombinant human VEGFR-1 …. Description: blocking ELISA: antibody preincubated with VEGFR-1 AP, binding to PlGF coated plate. As for the experimental part: as §1
The target is the same in experiment [6]. Description: blocking ELISA: antibody preincubated with VEGFR-1 AP, binding to VEGF coated plate. As for the experimental part:
as §1

For experiment [7] the target is unchanged. Description: ELISA: purified antibody on plate-coated rhuVEGFR-1 AP, O.D. 450. How it is done:
as §1

T4 sequence (P17948 27-758 limits assumed): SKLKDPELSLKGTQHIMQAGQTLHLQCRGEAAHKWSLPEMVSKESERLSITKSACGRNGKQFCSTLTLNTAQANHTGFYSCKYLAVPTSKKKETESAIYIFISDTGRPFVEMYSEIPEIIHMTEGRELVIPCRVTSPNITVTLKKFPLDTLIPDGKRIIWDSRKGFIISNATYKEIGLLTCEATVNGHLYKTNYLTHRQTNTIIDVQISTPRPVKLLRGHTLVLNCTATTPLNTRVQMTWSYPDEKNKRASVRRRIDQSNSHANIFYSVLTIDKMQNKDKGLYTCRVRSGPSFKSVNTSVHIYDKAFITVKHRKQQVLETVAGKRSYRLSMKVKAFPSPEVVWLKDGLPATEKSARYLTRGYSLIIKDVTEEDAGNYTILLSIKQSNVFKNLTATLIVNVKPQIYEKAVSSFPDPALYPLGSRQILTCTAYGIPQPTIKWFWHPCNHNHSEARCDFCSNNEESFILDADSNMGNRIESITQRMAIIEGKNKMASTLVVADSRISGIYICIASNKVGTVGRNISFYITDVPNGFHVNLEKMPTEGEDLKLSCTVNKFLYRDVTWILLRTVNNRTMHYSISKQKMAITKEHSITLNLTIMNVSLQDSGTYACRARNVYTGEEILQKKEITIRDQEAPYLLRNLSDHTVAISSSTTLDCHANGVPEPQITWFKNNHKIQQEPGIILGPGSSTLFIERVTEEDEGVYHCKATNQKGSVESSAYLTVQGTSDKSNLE
T3 sequence (P17948 27-758): as the sequence (P17948 27-758 limits assumed) above
T1 sequence (P17948 27-1338): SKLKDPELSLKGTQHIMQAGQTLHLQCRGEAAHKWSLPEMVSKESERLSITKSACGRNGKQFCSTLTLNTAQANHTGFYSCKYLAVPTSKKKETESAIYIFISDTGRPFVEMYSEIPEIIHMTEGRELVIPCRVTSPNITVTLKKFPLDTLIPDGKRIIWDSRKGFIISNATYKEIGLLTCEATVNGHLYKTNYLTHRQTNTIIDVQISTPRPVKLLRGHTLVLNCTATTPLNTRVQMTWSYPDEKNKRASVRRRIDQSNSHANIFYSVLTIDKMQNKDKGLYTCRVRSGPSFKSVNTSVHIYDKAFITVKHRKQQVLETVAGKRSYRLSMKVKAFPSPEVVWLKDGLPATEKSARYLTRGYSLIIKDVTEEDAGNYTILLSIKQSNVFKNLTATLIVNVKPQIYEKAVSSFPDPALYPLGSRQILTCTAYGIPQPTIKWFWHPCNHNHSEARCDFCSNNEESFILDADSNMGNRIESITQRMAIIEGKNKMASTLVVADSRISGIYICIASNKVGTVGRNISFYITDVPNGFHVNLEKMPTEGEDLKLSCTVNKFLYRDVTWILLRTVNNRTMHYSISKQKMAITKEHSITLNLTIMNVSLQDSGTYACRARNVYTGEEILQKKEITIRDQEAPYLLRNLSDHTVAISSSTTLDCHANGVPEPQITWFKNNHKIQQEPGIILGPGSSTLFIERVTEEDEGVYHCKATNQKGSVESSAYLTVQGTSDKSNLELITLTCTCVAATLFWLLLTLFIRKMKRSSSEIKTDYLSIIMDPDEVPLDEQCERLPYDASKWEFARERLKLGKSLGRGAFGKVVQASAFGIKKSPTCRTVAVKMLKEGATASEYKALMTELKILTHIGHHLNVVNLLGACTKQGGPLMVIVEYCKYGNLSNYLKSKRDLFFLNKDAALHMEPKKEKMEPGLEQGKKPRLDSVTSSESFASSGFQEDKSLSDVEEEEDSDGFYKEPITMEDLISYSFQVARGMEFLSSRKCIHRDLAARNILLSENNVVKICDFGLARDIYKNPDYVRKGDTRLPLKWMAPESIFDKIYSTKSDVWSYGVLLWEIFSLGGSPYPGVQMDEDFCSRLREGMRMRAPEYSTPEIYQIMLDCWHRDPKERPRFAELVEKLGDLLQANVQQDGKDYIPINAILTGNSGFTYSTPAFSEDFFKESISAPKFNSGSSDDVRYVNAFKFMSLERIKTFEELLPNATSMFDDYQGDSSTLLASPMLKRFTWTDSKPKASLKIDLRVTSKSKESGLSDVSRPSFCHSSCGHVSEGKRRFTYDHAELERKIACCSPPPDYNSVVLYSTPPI
T2 sequence (P35918 20-762 limits assumed): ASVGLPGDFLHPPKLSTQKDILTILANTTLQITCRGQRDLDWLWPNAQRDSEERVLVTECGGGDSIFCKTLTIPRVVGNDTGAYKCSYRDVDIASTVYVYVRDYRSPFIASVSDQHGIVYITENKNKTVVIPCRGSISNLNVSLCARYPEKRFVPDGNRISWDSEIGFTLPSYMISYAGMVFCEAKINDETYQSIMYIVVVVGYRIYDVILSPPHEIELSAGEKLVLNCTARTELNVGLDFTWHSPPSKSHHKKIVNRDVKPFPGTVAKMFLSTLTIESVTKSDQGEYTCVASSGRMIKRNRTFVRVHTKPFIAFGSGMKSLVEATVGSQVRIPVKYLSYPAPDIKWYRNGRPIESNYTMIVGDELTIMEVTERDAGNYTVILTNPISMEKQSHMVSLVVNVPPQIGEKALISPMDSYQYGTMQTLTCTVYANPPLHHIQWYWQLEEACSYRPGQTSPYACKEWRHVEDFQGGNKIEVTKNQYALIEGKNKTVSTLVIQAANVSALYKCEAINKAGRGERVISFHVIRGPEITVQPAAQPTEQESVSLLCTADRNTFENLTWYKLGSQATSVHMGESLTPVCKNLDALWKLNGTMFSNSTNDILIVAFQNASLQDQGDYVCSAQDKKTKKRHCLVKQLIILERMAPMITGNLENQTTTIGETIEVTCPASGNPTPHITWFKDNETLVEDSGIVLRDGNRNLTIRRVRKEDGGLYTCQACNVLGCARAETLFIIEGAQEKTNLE

B1: human VEGF165 (ligand, UniProt P15692-4 27-191, looked up)
chain: APMAEGGGQNHHEVVKFMDVYQRSYCHPIETLVDIFQEYPDEIEYIFKPSCVPLMRCGGCCNDEGLECVPTEESNITMQIMRIKPHQGQHIGEMSFLQHNKCECRPKKDRARQENPCGPCSERRKHLFVQDPQTCKCSCKNTDSRCKARQLELNERTCRCDKPRR
For B1, in experiment [1], the binding result is reported as “binds”.

B2: DC101 (antibody, V domains shown)
VH: EVQLVETGGGLVQPGNSLKLSCATSGFIFSTTWMNWIRQTPGKRLEWLAQIEDKSNNYFISYSESVKGRFTISRDDSKSSVYLQMNNLKEEDTAIYYCSWKYRSNYYFDYWGQGVMVTVSS
VL: DIVLTQSPALAVSLEQRATISCKTSQNVDYYGISYLHWYQQKPGQQPKLLIYEGSNLASGIPARFSGSGSGTDFTLTIDPVEADDIVTYYCQQSKDYPYTFGAGTKLELK
As to B2, the EC50 (read off the curve) (usually the midpoint of the concentration-response curve) with mouse VEGFR-2 Fc is about 8 ng/mL.

B3: anti-VEGFR-1 antibody clone 13G12 (antibody, human IgG1, V domains shown)
VH: QVQLVESGGGVVQPGRSLRLSCAASGFTFSSYGMHWVRQAPGKGLEWVAVIWYDGSNKYYADSVKGRFTISRDNSKNTLYLQMNSLRAEDTAVYYCARDHYGSGAHYYYYYGMDVWGQGTTVTVSS
VL: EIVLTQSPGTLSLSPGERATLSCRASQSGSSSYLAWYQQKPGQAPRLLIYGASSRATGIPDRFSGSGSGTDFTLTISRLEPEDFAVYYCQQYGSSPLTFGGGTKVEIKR
notes: Fully human antibody (gamma heavy chain, kappa light chain) from hybridomas of KM transgenic mice, purified; The light chain entry runs a few residues into the kappa constant region
For B3, the “Inhibition of PlGF-induced DU4475 cell growth in vitro (IC50)” value (from here on “Inhibition”) in experiment [2] was determined as 66 nM. Further, in experiment [3], the EC50 (commonly the concentration at which the effect is half-maximal) is 0.3 nM. In experiment [4], the Kd (commonly a measure of binding affinity in units of concentration) came out at 0.121 nM. The kon – broadly, the rate constant with which the complex forms – in experiment [4] is 950000 M⁻¹ s⁻¹. In addition, the IC50 (as a rule, the concentration that gives 50% inhibition) in experiment [5] was 0.82 nM; in experiment [6], 0.7 nM.

B4: anti-VEGFR-1 antibody clone 6F9 (antibody, human IgG1, V domains shown)
VH: B3 VH with L79V, Y95H, A97T, Y101F
VL: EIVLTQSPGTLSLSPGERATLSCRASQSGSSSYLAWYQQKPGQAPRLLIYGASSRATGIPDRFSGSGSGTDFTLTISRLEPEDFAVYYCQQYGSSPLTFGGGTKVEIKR
notes: Fully human antibody (gamma heavy chain, kappa light chain) from hybridomas of KM transgenic mice, purified
On to B4, for which the “Inhibition” value in experiment [2] is 43 nM. In addition, the EC50 in experiment [3] is 0.1 nM; in experiment [7] it was 0.114 nM. Further, the Kd in experiment [4] is 0.069 nM. Besides, the kon in experiment [4] stood at 1.01e+06 M⁻¹ s⁻¹. For the same molecule, the IC50 came out at 0.86 nM in experiment [5] and 0.82 nM in experiment [6].

B5: anti-VEGFR-1 antibody clone 15F11 (antibody, V domains shown)
VH: B3 VH with Y53F, Y107S, M113L, T121S
VL: not shown
notes: Fully human antibody (gamma heavy chain, kappa light chain) from hybridomas of KM transgenic mice, purified; The light chain entry runs a few residues into the kappa constant region; also called FI1
Consider B5, for which the “Inhibition” value in experiment [2] worked out at 44 nM. Besides, the EC50 in experiment [3] was found to be 0.3 nM. In experiment [4], the Kd came out at 0.07 nM and the kon was determined as 1.02e+06 M⁻¹ s⁻¹. Further, the IC50 in experiment [5] amounted to 0.49 nM. Also, the IC50 in experiment [6] was 0.73 nM.
